Results published in patent publication US20170189510A1.

Biological target: HLA-A*24 (human)
Test: UV-ligand exchange, anti-b2m ELISA

| Binder | peptide exchange yield [%] |
| --- | --- |
| NYINRILKL [peptide SEQ ID No 167 …] | > 75 |
| LYNKGFIYL [peptide SEQ ID No 159 …] | > 75 |
| TYIKPISKL [peptide SEQ ID No 273 …] | 50 to 75 |
| VFKASKITF [peptide SEQ ID No 191 …] | 50 to 75 |
| MYDSYWRQF [peptide SEQ ID No 179 …] | > 75 |
| VFTSTARAF [peptide SEQ ID No 183 …] | 50 to 75 |
| IFIEVFSHF [peptide SEQ ID No 178 …] | 50 to 75 |
| TYIESASEL [peptide SEQ ID No 279 …] | 50 to 75 |
| YYVYIMNHL [peptide SEQ ID No 225 …] | 50 to 75 |
| FFPPTRQMGLLF [peptide SEQ ID No 217 …] | > 75 |
| QYLENLEKL [peptide SEQ ID No 224 …] | 50 to 75 |
| IFPQFLYQF [peptide SEQ ID No 186 …] | > 75 |
| EYSLFPGQVVI [peptide SEQ ID No 197 …] | 50 to 75 |
| IFLDYEAGTLSF [peptide SEQ ID No 227 …] | > 75 |
| LYLDIINLF [peptide SEQ ID No 181 …] | > 75 |
| TYSVSFPMF [peptide SEQ ID No 195 …] | > 75 |
| IYTMIYRNL [peptide SEQ ID No 210 …] | > 75 |
| DYLKGLASF [peptide SEQ ID No 163 …] | > 75 |
| EYNQWFTKL [peptide SEQ ID No 176 …] | 50 to 75 |
| TYGDAGLTYTF [peptide SEQ ID No 283 …] | 50 to 75 |
| KYPVEWAKF [peptide SEQ ID No 289 …] | > 75 |
| VFTRVSSFL [peptide SEQ ID No 162 …] | 50 to 75 |
| KYTSWYVAL [peptide SEQ ID No 228 …] | > 75 |
| WYVNGVNYF [peptide SEQ ID No 189 …] | 20 to 49 |
| QYSSVFKSL [peptide SEQ ID No 216 …] | > 75 |

| Binder | peptide exchange yield [%] |
| --- | --- |
| VYTLDIPVL [peptide SEQ ID No 160 …] | > 75 |
| VFQNFPLLF [peptide SEQ ID No 184 …] | > 75 |
| YYLEVGKTLI [peptide SEQ ID No 211 …] | > 75 |
| GFFIFNERF [peptide SEQ ID No 190 …] | 50 to 75 |
| EFGSLHLEFL [peptide SEQ ID No 194 …] | < 20 |
| KYQDILETI [peptide SEQ ID No 168 …] | > 75 |
| IYQLDTASI [peptide SEQ ID No 182 …] | 50 to 75 |
| IYKVGAPTI [peptide SEQ ID No 185 …] | 50 to 75 |
| YYEVHKELF [peptide SEQ ID No 175 …] | > 75 |
| YYVESGKLF [peptide SEQ ID No 166 …] | > 75 |
| VYGFQWRHF [peptide SEQ ID No 276 …] | > 75 |
| IYLVSIPEL [peptide SEQ ID No 161 …] | > 75 |
| RYPDNLKHLYL [peptide SEQ ID No 280 …] | > 75 |
| LFIPSSKLLFL [peptide SEQ ID No 171 …] | 50 to 75 |
| VYEDQVGKF [peptide SEQ ID No 170 …] | 20 to 49 |
| RYLNKAFHI [peptide SEQ ID No 284 …] | 50 to 75 |
| FYSRLLQKF [peptide SEQ ID No 203 …] | 50 to 75 |
| RYISDQLFTNF [peptide SEQ ID No 278 …] | > 75 |
| VYPWLGALL [peptide SEQ ID No 177 …] | > 75 |
| QYLQDAYSF [peptide SEQ ID No 272 …] | > 75 |
| RFHPTPLLL [peptide SEQ ID No 193 …] | > 75 |
| SYALLTYMI [peptide SEQ ID No 192 …] | > 75 |
| KYMVYPQTF [peptide SEQ ID No 267 …] | > 75 |
| AYLHSHALI [peptide SEQ ID No 274 …] | > 75 |
| IYDDSFIRPVTF [peptide SEQ ID No 180 …] | 50 to 75 |

| Binder | peptide exchange yield [%] |
| --- | --- |
| KFSSFSLFF [peptide SEQ ID No 164 …] | 50 to 75 |
| KFVDSTFYL [peptide SEQ ID No 282 …] | > 75 |
| LYLDKATLI [peptide SEQ ID No 198 …] | 50 to 75 |
| DYTTWTALL [peptide SEQ ID No 165 …] | > 75 |
| LYHDIFSRL [peptide SEQ ID No 271 …] | > 75 |
| EYPLVINTL [peptide SEQ ID No 219 …] | 50 to 75 |
| IYSWILDHF [peptide SEQ ID No 173 …] | > 75 |
| LYIDRPLPYL [peptide SEQ ID No 196 …] | 50 to 75 |
| VYVGGGQIIHL [peptide SEQ ID No 174 …] | 50 to 75 |
| VYRDETGELF [peptide SEQ ID No 226 …] | 50 to 75 |
| VYVSDIQEL [peptide SEQ ID No 288 …] | 50 to 75 |
| KYIPYKYVI [peptide SEQ ID No 223 …] | 50 to 75 |
| HYSQELSLLYL [peptide SEQ ID No 158 …] | > 75 |
| LYLKLWNLI [peptide SEQ ID No 214 …] | 50 to 75 |
| TYTTVPRVAF [peptide SEQ ID No 172 …] | > 75 |
| TYTQDFNKF [peptide SEQ ID No 208 …] | 50 to 75 |
| YFDKVVTL [peptide SEQ ID No 215 YFDKVVTL] | 20 to 49 |
| AYTLIAPNI [peptide SEQ ID No 169 …] | 50 to 75 |
| EYINQGDLHEF [peptide SEQ ID No 275 …] | 50 to 75 |
| RYFKGLVF [peptide SEQ ID No 188 RYFKGLVF] | 50 to 75 |
| TYLRDQHFL [peptide SEQ ID No 187 …] | > 75 |
| RYPDNLKHL [peptide SEQ ID No 286 …] | 20 to 49 |
| VHIPEVYLI [peptide SEQ ID No 205 …] | 50 to 75 |
| EYQENFLSF [peptide SEQ ID No 206 …] | 50 to 75 |
| RYSTGLAGNLL [peptide SEQ ID No 221 …] | 50 to 75 |
